Experimental findings from article PMC6943187 are described below.

The target of the experiment is WT FUS::EGFP (FUS tagged with a C-terminal GFP tag) (UniProt P35637). As to the kind of experiment: single-molecule photobleaching step counting.

The substance “WT FUS::EGFP (FUS tagged with a C-terminal GFP tag) (from UniProt P35637 1-526)” registered a fraction of dimers (two-step photobleaching) of 30%.
